The record followed here is publication PMC12070368 (ACS Applied Nano Materials, 2025).

The target in the assay is T1, Ebolavirus glycoprotein (EGP) of the Zaire strain (Zaire ebolavirus, UniProt Q05320 33-650).
T1 sequence: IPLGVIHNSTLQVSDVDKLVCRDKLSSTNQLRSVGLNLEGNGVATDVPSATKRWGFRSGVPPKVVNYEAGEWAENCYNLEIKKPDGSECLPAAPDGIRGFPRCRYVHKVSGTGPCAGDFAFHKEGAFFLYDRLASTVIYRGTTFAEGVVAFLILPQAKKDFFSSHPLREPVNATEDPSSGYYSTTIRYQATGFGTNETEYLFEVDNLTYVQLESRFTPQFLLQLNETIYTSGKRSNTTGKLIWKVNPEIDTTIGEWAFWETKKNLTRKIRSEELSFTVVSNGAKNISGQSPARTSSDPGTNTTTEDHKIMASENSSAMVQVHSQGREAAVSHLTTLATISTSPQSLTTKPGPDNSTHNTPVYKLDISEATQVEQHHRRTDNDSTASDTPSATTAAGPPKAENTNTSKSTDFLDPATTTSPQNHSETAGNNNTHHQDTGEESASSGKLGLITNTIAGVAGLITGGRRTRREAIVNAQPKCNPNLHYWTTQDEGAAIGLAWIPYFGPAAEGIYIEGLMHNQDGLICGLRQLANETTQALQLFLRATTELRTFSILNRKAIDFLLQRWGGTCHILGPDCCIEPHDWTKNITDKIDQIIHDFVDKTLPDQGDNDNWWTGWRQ
The following applies: both partners purified.

B1: TIM-1 (receptor, UniProt Q96D42 21-295, looked up)
chain: SVKVGGEAGPSVTLPCHYSGAVTSMCWNRGSCSLFTCQNGIVWTNGTHVTYRKDTRYKLLGDLSRRDVSLTIENTAVSDSGVYCCRVEHRGWFNDMKITVSLEIVPPKVTTTPIVTTVPTVTTVRTSTTVPTTTTVPMTTVPTTTVPTTMSIPTTTTVLTTMTVSTTTSVPTTTSIPTTTSVPVTTTVSTFVPPMPLPRQNHEPVATSPSSPQPAETHPTTLQGAIRREPTSSPLYSYTTDGNDTVTESSDGLWNNNQTQLFLEHSLLTANTTKG
For the molecule B1, the ΔSPR stood at 35 nm.
